Data reported in IntAct's records for PubMed 8887672.

B1: RNA polymerase I-specific transcription initiation factor RRN6 (Saccharomyces cerevisiae), P32786 (parent)
chain: MSEGQIPSSDVLGSQLGVGVQGASLYCPQENYTTKKQEKPQWLRPVDDTLAEDALDLHIVVKSLLCDTAIRYISDDKVLQESDADDDLITSDIDEDTDNQGDTSIVVNPVIPVVPKDVHFFKKVDVGNDSMFGVNCDTPVSFQDYIPSDLLRNLDDTLQESTNSSRPMQDAFFWDPTVANRLDSQYIQTASDLRNYRDGTEIIAYASGKTGSVLNIAVLTRQNTLHLNRHNNVTSIELHSPIKSIKIPGASESIGRRSNLVGIITENSFQIFRIESVHSRSCDVMVSSSEPLYFVEIDDLQVVDFAFNPWDLQQFAIIDIKGNWSIGRIPKNFNNNNKRKLQLIDNLHGTIFDPEELSSWKRIEWFSHFQKILVFDRSKMIEIDFMNNWQTEVVQAKAWSNIRDYKRIDDKNGILLTSREIIIVGASESNDPVRRISWKHDLDPDDTTLRITVQKVKKPDHILLVAFVYSMRHKRIYMHVFSHRKANLFQSLGCSTVLEIPGGTPTGIETILTLDHIDDESRREEDADENFELVVDFLVKLRNSSEVYYYALSNTQNSEPNKQETPIIVDHPEWASLFNNADEREKESIGALVSQIKLKERERISRVQNLIEHENSHDEDKYLQDLGYRLSIATNELLESWQKTKDESILSGSLSHSKLKNLLENSDSFASIPEFSSLLDQFFQYYQDQDVTFIGFEKLLHLFLHEDVPGLDIFYNKLLQCWVLVSPQAELLTKEIVKDIIWSLARLEKPSLFEPIQNEISRSLSGPYQDIISSWDMDDINEEDESNEFNFDSQFSAPFNGRPPFNLNSQSQIPTIKSSQSSGLARRKRILKTQSQKATPLSQSTQNLSVLPDSMTPAFTLMQPPSSQISFVNDSQPRNSQKAKKKKKRIRGFG
partner: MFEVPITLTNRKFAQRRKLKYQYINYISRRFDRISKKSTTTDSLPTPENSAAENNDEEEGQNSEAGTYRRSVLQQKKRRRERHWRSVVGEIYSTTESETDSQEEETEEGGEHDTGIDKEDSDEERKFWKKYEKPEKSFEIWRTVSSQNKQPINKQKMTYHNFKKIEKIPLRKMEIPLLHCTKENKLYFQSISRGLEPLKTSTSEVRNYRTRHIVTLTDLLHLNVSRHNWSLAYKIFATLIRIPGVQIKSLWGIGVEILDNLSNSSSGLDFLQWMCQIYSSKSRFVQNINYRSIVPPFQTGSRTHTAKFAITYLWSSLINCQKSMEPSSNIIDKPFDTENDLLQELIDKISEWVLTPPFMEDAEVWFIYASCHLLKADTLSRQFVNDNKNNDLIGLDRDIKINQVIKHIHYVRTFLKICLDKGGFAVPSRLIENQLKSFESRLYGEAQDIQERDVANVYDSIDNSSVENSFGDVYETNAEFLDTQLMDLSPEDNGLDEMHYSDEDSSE
B2: RNA polymerase I-specific transcription initiation factor RRN11 (Saccharomyces cerevisiae), Q04712 (parent)
chain: B1 partner
partner: B1 chain

Variants of: B1
Settings: with rrn11_yeast RRN11, Q04712

Variant | effect of a mutation on the interaction
L50A;L57A;L64A | decreasing interaction

Variants of: B2
Settings: with rrn6_yeast RRN6, P32786

Variant | effect of a mutation on the interaction
MFEVPITLTNRKFAQRRKLKYQYINYISRRFDRISKKSTTTDSLPTPENSAAENNDEEEGQNSEAGTYRRSVLQQKKRRRERHWRSVVGEIYSTTESETDSQEEETEEGGEHDTGIDKEDSDEERKFWKKYEKPEKSFEIWRTVSSQNKQPINKQKMTYHNFKKIEKIPLRKMEIPLLHCTKENKLYFQSISRGLEPLKTSTSEVRNYRTRHIVTLTDLLHLNVSRHNWSLAYKIFATLIRIPGVQIKSLWGIGVEILDNLSNSSSGLDFLQWMCQIYSSKSRFVQNINYRSIVPPFQTGSRTHTAKFAITYLWSSLINCQKSMEPSSNIIDKPFDTENDLLQELIDKISEWVLTPPFMEDAEVWFIYASCHLLKADTLSRQFVNDNKNNDLIGLDRDIKINQVIKHIHYVRTFLKICLDKGGFAVPSRLIENQLKSFESRLYGEAQDIQERDVANVYDSIDNSSVENSFGDVYETNAEFADTQLMDASPEDNGADEMHYSDEDSSE [L481A;L488A;L495A] | decreasing interaction
